Laboratory results reported in US20220372112A1 (KEYMED BIOSCIENCES, published 2022).

How the values were obtained:
[1] = biological target: T1, human Claudin 18.1 (human, UniProt P56856 1-261); assay: flow cytometry on HEK293-Claudin 18.1 cells, chimeric IgG1
T1 construct: whole, on cells
T1 sequence (looked up): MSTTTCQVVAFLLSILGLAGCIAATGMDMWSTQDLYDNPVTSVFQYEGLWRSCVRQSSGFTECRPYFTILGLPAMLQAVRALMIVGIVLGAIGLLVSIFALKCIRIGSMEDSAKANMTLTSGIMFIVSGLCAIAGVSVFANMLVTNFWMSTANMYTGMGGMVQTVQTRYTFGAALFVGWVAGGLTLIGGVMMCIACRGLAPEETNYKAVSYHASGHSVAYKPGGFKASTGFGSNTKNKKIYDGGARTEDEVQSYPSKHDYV
Description: (§1) The HEK293-Claudin 18.1 cells, HEK293-Claudin 18.2 cells and HEK293 cells at logarithmic growth phase were taken, after digesting, added at 5×10⁴ cells/100 μL to the U-shaped 96-well plate, centrifuged at 1100 rpm for 3 minutes, the supernatant was discarded, the cells were gently patted and loosed, 50 μL of antibody diluted according to the series was added to each well (antibody concentration starts from 100 nM, 5 times dilution in 8 series), and incubate at 4° C. for 1 hour. After the incubation, 140 μL 0.5% BSA was added to each well to wash 3 times, the secondary antibody AlexaFluro647 anti-human IgG (Jackson ImmunoResearch, catalog number: 109-606-170) was added with 30 μL/well, and incubated at 4° C. for 40 minutes. After the incubation, 140 μL 0.5% BSA was added to each well to wash 3 times, and finally resuspended each well with 50 μL PBS for flow cytometry (iQue Screener) detection.

[2] = biological target: T2, human Claudin 18.2 (human, UniProt P56856-2 1-261); assay: flow cytometry (iQue) on cells, antibody from 100 nM in 5-fold steps; cell line not named in Example 5
T2 construct: whole, on cells
T2 sequence (looked up): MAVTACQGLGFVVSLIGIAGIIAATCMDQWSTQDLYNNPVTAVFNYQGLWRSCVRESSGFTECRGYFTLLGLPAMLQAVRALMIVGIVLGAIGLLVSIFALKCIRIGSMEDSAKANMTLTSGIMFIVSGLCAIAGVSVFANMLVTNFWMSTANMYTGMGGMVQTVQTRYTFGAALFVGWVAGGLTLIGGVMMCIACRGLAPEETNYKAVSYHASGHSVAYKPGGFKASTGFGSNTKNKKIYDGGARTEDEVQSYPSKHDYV
Description: The cells at logarithmic growth phase were taken, blocked with 3% BSA for 30 minutes, plated at 5×10⁴ cells/100 μL into a U-shaped 96-well plate, centrifuged at 1100 rpm for 3 minutes, the supernatant was discarded, the cells were gently patted and loosed, 50 μL of antibody diluted according to the series was added to each well (antibody concentration starts from 100 nM, 5 times dilution in 8 series), incubated at 4° C. for 1 hour. After the incubation, 140 μL of 0.5% BSA was added to each well to wash 3 times, AF 647 APC anti-human secondary antibody was added with 30 μL/well and incubated at 4° C. for 40 minutes. After the incubation, 140 μL of 0.5% BSA was added to each well to wash 3 times, and finally resuspended each well with 50 μL PBS for iQue (Intellicyt, USA) detection (shown in Table 2).

[3] = biological target: T2, human Claudin 18.2; assay: flow cytometry (iQue) on HEK293-Claudin 18.2 cells, chimeric IgG1
Description: as §1

B1: 18D10 (antibody, V domains shown)
VH: DVQLQESGPGLVKPSQSLSLTCTVTGYSITSNYAWNWIRQFPGNKLEWMGYINYSGNTNYNPSLKSRISITRDTSKNQFFLQLNSVTAEDTATYYCATSYYGNSFIYWGQGTLVTVSA
VL: DIVMTQSPSSLTVTAGEKVTMSCKSSQSLLNSGNQKNYLTWYQQKPGQPPKLLIYWASTRESGVPDRFTGSGSGTDFTLTISSVQAEDLAVYYCQNAYSFPWTFGGGTKLEIK
notes: also called Clone 18D10; 18D10 Chimera
Question: Which results are given for B1?
Answer: binding result [1]: no binding (tested: 100 nM (highest concentration tested)); EC50 [2]: 2.07 nM; EC50 [3]: 0.37 nM
